{
  "source": "patent US20040235717A1",
  "about": "“Suppression of androgen receptor transactivation through new pathways to ar and ar coactivators and repressors” (priority 2001, published 2004)",
  "molecules": {"B1": {"name": "Smad3: a downstream mediator of the TGF-β signaling pathway (protein)", "chain": "MSSILPFTPPIVKRLLGWKKGEQNGQEEKWCEKAVKSLVKKLKKTGQLDELEKAITTQNVNTKCITIPRSLDGRLQVSHRKGLPHVIYCRLWRWPDLHSHHELRAMELCEFAFNMKKDEVCVNPYHYQRVETPVLPPVLVPRHTEIPAEFPPLDDYSHSIPENTNFPAGIEPQSNIPETPPPGYLSEDGETSDHQMNHSMDAGSPNLSPNPMSPAHNNLDLQPVTYCEPAFWCSISYYELNQRVGETFHASQPSMTVDGFTDPSNSERFCLGLLSNVNRNAAVELTRRHIGRGVRLYYIGGEVFAECLSDSAIFVQSPNCNQRYGWHPATVCKIPPGCNLKIFNNQEFAALLAQSVNQGFEAVYQLTRMCTIRMSFVKGWGAEYRRQTVTSTPCWIELHLNGPLQWLDKVLTQMGSPSIRCSSVS"}},
  "key": {"[1]": {"system": "AR transactivation", "settings": "PC-3 and CV1 cells; Hayes et al.; cited from earlier work"}, "[2]": {"system": "AR transactivation", "assay": "AR transactivation reporter assays in SW480.7 / SW480·C7 cells", "assay_type": "cell-based", "settings": "for Effect on ARE reporter activity: SW480·C7 cells", "method": "(§1) 37. […] (A) PC3-AR2, SW480·C7, and PC-3 cells were transiently co-transfected with either MMTV-CAT, PSA-CAT, 5XARE-CAT, or (TAT)2-CAT (3 μg), in the presence of AR, Smad3, Smad4 or Smad3/Smad4 as indicated. Each CAT activity is presented relative to the transactivation observed in the absence of Smad3. All values represent the mean±SD of three independent experiments."}, "[3]": {"system": "PSA mRNA expression", "assay": "PSA mRNA expression in LNCaP cells, Northern blot", "assay_type": "cell-based"}, "[4]": {"system": "wtAR, mtARt877a, PR, VDR, ER transactivation", "assay": "Steroid receptor transactivation with Smad3 in DU145 cells (wtAR, mtARt877a, PR, VDR, ER)", "assay_type": "cell-based, human"}, "[5]": {"system": "AR transactivation", "assay": "AR transactivation with Smad3/Smad4, CAT reporters in PC3-AR2, PC-3 and LNCaP cells", "assay_type": "cell-based, human", "method": "32. […] LNCaP cell were transfected with Smad3 or Smad4 expression vector instead of PC-3(AR)2 cells in experiments otherwise identical with those in A (B), PC-3(AR)2 cells stably transfected with AR were over-expressed with the indicated amounts of Smad3 or Smad4 or SRC-1. 3 μg of MMTV-CAT was used as a reporter plasmid in all experiments. All values represent the averages±SD of four independent experiments. […] PSA expression level was determined by Northern blotting. The probe was obtained from exon 1 of the PSA gene and labeled with [α-^32P] dCTP. A β-actin probe was used as a control for equivalent mRNA loading. (C, Table 1) The RNA samples from (A) were reverse transcribed to cDNAs and all of the samples were subjected to real-time CR using an ABI Prism 7700 Sequence Detection System (Perkin-Elmer Applied bio systems). PCR was performed using the SYBR Green PCR Core Reagents kit (Perkin-Elmer Applied Bio systems). PSA and β-actin forward, reverse primers concentrations were 2.5 μM. To reduce variability between replicates, PCR premixes which contained all reagents except for total RNA were prepared and aliquoted into 1.5 ml microfuge tubes. Specific PCR amplification products were detected by the fluorescent double-stranded DNA-binding dye SYBR Green core reagent kit. Experiments were performed with triplicates for each data point.\nas §1\n333. Human prostate cancer DU145 cells and PC-3 cells were maintained in Dulbecco's Minimum Essential Medium containing penicillin (25 U/ml), streptomycin (25 μg/ml), and 5% fetal calf serum. Transfections were performed using the calcium phosphate precipitation method and cells were harvested after 24 h for the chloramphenicol acetyltransferase (CAT) assay, as described previously (Kang, et al. (1999) J. Biol. Chem. 274, 8570-8576). The CAT activity was visualized and quantitated by STORM 840 (Molecular Dynamics). At least three independent experiments were carried out in each case. The SW480·C7 cells and PC-3(AR)2 cells are the gifts from Dr. Eric J. Stanbridge and Dr. T. J. Brown"}},
  "note": "“Also recorded” adds a separate entry of the source.",
  "data": [
    {"molecule": "B1", "values": [
      {"measurement": "Effect on AR transactivation", "setting": "[1]", "value": "suppress AR transactivation"},
      {"measurement": "Effect on ARE reporter activity", "setting": "[2]; MMTV-ARE reporter", "value": "only enhance MMTV-ARE reporter activity"},
      {"measurement": "Effect on ARE reporter activity", "setting": "[2]; PSA-ARE, 5X-ARE and TAT2-ARE reporters", "value": "some slight repression"},
      {"measurement": "Effect on ligand-dependent transactivation of AR", "setting": "[2]; SW480.7 cells, MMTV-CAT", "value": "increased the ligand-dependent transactivation of AR"},
      {"measurement": "Effect on PSA expression", "setting": "[3]; absence of androgen", "value": "failed to induce PSA expression"},
      {"measurement": "Effect on androgen-induced PSA mRNA expression", "setting": "[3]; presence of androgen", "value": "further enhance PSA expression; also recorded: further enhances DHT-induced PSA mRNA expression"},
      {"measurement": "Enhancement of AR transactivation compared to ARA70", "setting": "[4]", "value": "relatively stronger enhancement effect"},
      {"measurement": "Enhancement of wtAR transactivation", "setting": "[4]; 10 nM DHT", "value": "3-4 fold"},
      {"measurement": "Effect on transactivation of steroid receptors", "setting": "[4]; 10^−8 M cognate ligand", "value": "significantly enhance the transactivation of AR, the progesterone receptor, and VDR"},
      {"measurement": "Effect on androgen-activated AR transactivation", "setting": "[5]; PC3-AR2, MMTV-CAT, 10^−8 M DHT", "value": "further enhanced"},
      {"measurement": "Effect on ARE reporters (MMTV, PSA, 5X-ARE, TAT2-ARE)", "setting": "[5]; PC-3 cells", "value": "enhance all these reporters"}
    ]}
  ]
}
